Values belong to the molecule of their own block, whether it stands above or below them.
Assays:
hCCR5 (human) [1] = molecular target: hCCR5 (human) (UniProt P51681); experiment: cell-based or functional assay
hCCR3 (human) [2] = molecular target: hCCR3 (human) (UniProt P51677); experiment: blood of a healthy donor passed through a column of biotinylated RANTES coupled matrix; flow cytometry for CCR1, 3 and 5-expressing cells
[3] = molecular target: T1, CCR1 on human peripheral blood cells (human) (UniProt P32246); experiment: as above
T1 sequence (looked up): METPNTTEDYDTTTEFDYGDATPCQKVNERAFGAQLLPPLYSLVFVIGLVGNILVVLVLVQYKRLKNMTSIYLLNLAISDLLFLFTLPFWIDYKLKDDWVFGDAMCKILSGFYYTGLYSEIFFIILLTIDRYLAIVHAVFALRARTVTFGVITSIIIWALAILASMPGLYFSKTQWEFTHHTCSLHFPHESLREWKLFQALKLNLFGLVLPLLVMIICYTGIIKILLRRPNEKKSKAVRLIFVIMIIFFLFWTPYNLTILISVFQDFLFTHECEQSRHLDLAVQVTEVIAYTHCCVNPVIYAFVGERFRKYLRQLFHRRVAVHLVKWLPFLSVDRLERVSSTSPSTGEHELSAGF

hCCR5 (human) [4] = molecular target: hCCR5 (human) (UniProt P51681); experiment: as above
hCCR9 (human) = hCCR9 (human) (UniProt P51686); experiment: cell-based or functional assay
Chain of hCCR9 (human) (P51686 whole entry): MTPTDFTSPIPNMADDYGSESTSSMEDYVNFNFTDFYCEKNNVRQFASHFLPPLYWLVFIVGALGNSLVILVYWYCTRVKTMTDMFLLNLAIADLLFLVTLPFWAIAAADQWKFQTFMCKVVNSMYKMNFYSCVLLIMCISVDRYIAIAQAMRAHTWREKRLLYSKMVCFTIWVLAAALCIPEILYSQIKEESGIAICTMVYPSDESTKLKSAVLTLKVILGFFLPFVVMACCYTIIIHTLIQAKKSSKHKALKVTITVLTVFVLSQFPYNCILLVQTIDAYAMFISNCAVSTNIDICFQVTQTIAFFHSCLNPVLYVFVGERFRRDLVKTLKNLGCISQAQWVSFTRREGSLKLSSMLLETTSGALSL

[5] = molecular target: CCR2 on human peripheral blood cells (monocytes, T cells) (human) (UniProt P41597); experiment: flow cytometry, labelled MCP-1 on fixed blood leukocytes of healthy donors, 30 min at 4 °C
[6] = molecular target: CCR2 on human peripheral blood cells (monocytes, T cells) (human) (UniProt P41597); experiment: blood of three healthy donors passed through a column of bMCP-1 coupled matrix; flow cytometry before and after
hCXCR3 (human) = hCXCR3 (human) (UniProt P49682); experiment: cell-based or functional assay
Chain of hCXCR3 (human) (P49682 whole entry): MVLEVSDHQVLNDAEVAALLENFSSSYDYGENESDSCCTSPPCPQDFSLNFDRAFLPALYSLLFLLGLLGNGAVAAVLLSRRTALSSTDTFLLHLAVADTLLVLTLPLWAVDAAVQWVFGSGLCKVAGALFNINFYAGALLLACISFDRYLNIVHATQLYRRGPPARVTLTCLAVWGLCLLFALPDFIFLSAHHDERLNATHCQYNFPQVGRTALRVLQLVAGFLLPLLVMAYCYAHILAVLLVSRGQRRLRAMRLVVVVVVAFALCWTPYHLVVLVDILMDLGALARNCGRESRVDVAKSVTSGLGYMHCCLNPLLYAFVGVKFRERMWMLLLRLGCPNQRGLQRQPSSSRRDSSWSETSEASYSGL

hCCR6 (human) = hCCR6 (human) (UniProt P51684); experiment: cell-based or functional assay
Chain of hCCR6 (human) (P51684 whole entry): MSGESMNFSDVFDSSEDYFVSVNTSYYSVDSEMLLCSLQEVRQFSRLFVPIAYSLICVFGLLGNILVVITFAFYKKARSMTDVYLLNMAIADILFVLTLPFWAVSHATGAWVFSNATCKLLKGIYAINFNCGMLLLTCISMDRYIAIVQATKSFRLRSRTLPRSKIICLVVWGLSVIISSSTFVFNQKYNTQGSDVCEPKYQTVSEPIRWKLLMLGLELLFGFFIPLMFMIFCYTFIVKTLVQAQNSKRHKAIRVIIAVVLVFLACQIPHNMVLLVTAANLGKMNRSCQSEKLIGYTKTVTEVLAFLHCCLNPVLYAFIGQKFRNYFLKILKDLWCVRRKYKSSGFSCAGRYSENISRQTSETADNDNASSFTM

hCCR3 (human) [7] = molecular target: hCCR3 (human) (UniProt P51677); experiment: cell-based or functional assay
hCCR2b = molecular target: T2, hCCR2b (human, UniProt P41597 1-374); experiment: cell-based or functional assay
T2 chain: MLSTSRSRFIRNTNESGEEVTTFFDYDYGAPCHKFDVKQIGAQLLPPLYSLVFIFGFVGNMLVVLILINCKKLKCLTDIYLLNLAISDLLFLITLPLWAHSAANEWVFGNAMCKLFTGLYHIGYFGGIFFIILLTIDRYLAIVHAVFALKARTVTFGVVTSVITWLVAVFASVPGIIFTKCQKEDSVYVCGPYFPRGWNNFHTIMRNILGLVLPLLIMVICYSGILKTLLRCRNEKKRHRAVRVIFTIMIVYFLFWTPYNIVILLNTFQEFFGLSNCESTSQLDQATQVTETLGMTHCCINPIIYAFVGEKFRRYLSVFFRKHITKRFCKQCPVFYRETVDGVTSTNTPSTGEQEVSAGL

Chain of hCCR5 (human) (P51681 whole entry): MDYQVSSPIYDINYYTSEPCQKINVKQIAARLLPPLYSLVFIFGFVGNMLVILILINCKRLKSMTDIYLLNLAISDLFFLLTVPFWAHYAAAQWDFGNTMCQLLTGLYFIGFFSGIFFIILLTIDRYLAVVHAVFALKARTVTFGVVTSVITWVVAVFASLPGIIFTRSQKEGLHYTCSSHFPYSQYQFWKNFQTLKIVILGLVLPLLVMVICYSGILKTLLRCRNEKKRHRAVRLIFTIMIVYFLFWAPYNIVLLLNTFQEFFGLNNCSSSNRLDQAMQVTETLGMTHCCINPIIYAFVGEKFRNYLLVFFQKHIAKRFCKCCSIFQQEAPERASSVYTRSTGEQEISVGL
Chain of hCCR3 (human) (P51677 whole entry): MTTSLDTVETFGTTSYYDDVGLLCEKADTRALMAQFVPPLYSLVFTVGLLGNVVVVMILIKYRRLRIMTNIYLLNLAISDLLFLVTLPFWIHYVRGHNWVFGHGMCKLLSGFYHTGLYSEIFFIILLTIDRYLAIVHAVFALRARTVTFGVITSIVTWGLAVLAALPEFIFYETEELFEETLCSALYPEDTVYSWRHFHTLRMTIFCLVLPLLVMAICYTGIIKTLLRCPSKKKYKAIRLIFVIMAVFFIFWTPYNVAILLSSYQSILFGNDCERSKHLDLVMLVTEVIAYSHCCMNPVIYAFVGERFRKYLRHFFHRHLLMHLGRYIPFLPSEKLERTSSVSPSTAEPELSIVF

Molecule: biotinRANTES (CCL5) (from UniProt P13501 24-91) (ligand)
agonist activity in an Aequorin assay, EC50 (hCCR5 (human) [1]): 0.5 nM
reduction of chemokine receptor-expressing cells by the column (hCCR3 (human) [2]): 20%
reduction of chemokine receptor-expressing cells by the column [3]: 20%
reduction of chemokine receptor-expressing cells by the column (hCCR5 (human) [4]): 20%

Molecule: biotinylated MCP-1 (from UniProt P13500 24-99) (ligand)
percent of monocytes that bound the chemokine [5]: 90%
remaining levels of monocytes after column passage [6]: 20 to 30%

Molecule: recombinant native IP-10 (from UniProt P02778 22-98) (ligand)
agonist activity in an Aequorin assay, EC50 (hCXCR3 (human)): 4.4 nM

Molecule: recombinant native TECK (from UniProt O15444 24-150) (ligand)
agonist activity in an Aequorin assay, EC50 (hCCR9 (human)): 67.9 nM

B1: recombinant native MCP-2 (ligand, human, UniProt P80075 24-99, looked up)
chain: QPDSVSIPITCCFNVINRKIPIQRLESYTRITNIQCPKEAVIFKTKRGKEVCADPKERWVRDSMKHLDQIFQNLKP
activity in an Aequorin assay (partial agonist), EC50 (hCCR2b): 23.5 nM

Other lines, results leading:

agonist activity in an Aequorin assay, EC50 (hCCR9 (human)): 63.6 nM
Molecule: biotinTECK(Met to Nleu substitution) (from UniProt O15444 25-97) (ligand)

agonist activity in an Aequorin assay, EC50 (hCXCR3 (human)): 0.7 nM
Molecule: recombinant native ITAC (from UniProt O14625 22-94) (ligand)

agonist activity in an Aequorin assay, EC50 (hCCR6 (human)): 1 nM
Molecule: recombinant native MIP-3α (from UniProt P78556 27-96) (ligand)

activity in an Aequorin assay (agonist), EC50 (hCCR3 (human) [7]): 10.7 nM
Molecule: recombinant native eotaxin (from UniProt P51671 24-97) (ligand)

From EP2718311B1 (TLA Targeted Immunotherapies AB, dated 2018)
